# Assay results: US20110229458A1 (published 2011)
# Assays:
# [1] = molecular target: T1, human GLP-1 receptor (human, UniProt P43220 24-463); assay: cell-based or functional assay
# [2] = molecular target: T1, human GLP-1 receptor; assay: cell-based or functional assay; remark: listed apart in the source
# T1 sequence (P43220 24-463): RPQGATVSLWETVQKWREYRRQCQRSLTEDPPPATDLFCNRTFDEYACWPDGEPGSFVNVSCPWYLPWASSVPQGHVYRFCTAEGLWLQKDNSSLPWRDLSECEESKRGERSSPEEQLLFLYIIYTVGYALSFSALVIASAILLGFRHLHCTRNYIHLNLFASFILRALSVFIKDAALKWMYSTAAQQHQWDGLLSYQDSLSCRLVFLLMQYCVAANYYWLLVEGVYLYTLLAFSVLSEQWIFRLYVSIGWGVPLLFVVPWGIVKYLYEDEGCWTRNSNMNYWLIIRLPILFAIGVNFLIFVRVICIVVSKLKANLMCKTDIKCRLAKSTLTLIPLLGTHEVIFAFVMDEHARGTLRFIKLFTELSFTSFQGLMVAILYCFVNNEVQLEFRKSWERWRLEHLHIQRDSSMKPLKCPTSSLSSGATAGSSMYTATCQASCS
"pEC50 (6CRE luciferase reporter, CHO 6CRE GLP1R cells) [1]","EC50 (M) (luciferase reporter, CHO 6CRE GLP1R cells); preparation DMS7161 A [2]","EC50 (M) (luciferase reporter, CHO 6CRE GLP1R cells); preparation DMS7161 B [2]","pEC50 (luciferase reporter, CHO 6CRE GLP1R cells); preparation DMS7161 A [2]","pEC50 (luciferase reporter, CHO 6CRE GLP1R cells); preparation DMS7161 B [2]",Binder
9.45,–,–,–,–,DMS7148 (other) HGEGTFTSDVSSYLEGQAAKEFIADLVEGRGPSSDIQMTQSPSSLSASVGDRVTITCRASQWIGSQLSWYQQKPGKAPKLLIMWRSSLQSGVPSRFSGSGSGTDFTLTISSLQPEDFATYYCAQGAALPRTFGQGTKVEIKR
–,3.4e-09,1.6e-09,8.47,8.79,DMS7161 (other) HGEGTFTSDVSSYLEGQAAKEFIADLVEGRGPSSDIQMTQSPSSLSASVGDRVTITCRASQWIGSQLSWYQQKPGKAPKLLIMWRSSLQSGVPSRFSGSGSGTDFTLTISSLQPEDFATYYCAQGLRHPKTFGQGTKVEIKR
